# Patent US6087121A, “Chemiluminescent detection of heme proteins in biological samples” (Mayo Foundation for Medical Education and Research, priority 1999, dated 2000)
# Several values for one entry are separate records, joined by “and”; a condition that tells them apart may be missing. Identical values can stand only once.
# T1: MPO (Homo sapiens, UniProt P05164)
# T1 sequence (P05164 49-745): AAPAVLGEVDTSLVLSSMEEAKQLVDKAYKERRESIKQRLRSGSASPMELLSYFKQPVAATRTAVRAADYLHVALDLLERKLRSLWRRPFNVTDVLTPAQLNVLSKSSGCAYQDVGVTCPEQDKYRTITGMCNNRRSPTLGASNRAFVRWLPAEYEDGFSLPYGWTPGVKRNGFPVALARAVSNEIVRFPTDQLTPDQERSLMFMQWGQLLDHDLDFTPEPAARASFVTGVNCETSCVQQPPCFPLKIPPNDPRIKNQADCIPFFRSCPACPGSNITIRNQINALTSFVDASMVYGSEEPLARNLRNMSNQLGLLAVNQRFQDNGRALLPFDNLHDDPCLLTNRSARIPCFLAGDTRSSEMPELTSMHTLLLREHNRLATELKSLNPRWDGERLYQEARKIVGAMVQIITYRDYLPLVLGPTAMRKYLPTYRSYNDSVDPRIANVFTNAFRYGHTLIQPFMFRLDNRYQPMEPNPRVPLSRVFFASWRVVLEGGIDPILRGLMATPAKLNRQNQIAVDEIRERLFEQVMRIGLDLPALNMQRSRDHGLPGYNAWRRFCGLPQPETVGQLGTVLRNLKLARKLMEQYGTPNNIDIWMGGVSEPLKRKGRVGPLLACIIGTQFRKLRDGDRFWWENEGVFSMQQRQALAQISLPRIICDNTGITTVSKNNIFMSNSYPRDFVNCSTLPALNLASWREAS
# Legend:
# Hb [1] = assay: S/N ratios of different chemiluminescent substrates with Hb; type: biochemical, human
# Experimental: (§1) Centricon ultrafiltration filters were obtained from Amicon (Daven, Mass.). Polystyrene tubes (5.0 mL volume, 75×12 mm) used for the assay were manufactured by Sarstedt (Arlington Heights, Ill.). The chemiluminescent substrate, 7-dimethylamino-naphthalene-1,2-dicarbonic acid-hydrazide (7-DNH) was purchased from Boehringer Mannheim (Indianapolis, Ind.). PS-1 acridan substrate (solution A and solution B) was obtained from Lumigen Inc. (Southfield, Mich.). […] Tween-20 and Sodium Chloride were purchased from Fisher Scientific (Fair Lawn, N.J.). General laboratory chemicals such as, boric acid, sodium acetate, Trizma base, HEPES, hydrogen peroxide (H2 O2) solution (30.0%), human hemoglobin, catalase, 6-amino-2,3-dihydro-1,4-phthallazinedione (4-aminophthalhydrazide), N-(4-Aminobutyl)-N-ethyl-isoluminol, Triton X-100, (3-[3-cholamidopropyl)dimethylammonio]-1-propanesulfonate) (CHAPS), hydrogen disulfite, methimazole, ofloxacin, ascorbic acid, ammonium chloride, EDTA, Hb, bilirubin, and lactoperoxidase (LPO) were purchased from Sigma Chemical Company (St. Louis, Mo.). Human heart myoglobin and myeloperoxidase were obtained from Calbiochem (La Jolla, Calif.) Thyroid peroxidase (TPO) was purchased from O.E.M. Concepts, Inc. (Toms River, N.J.). Eosinophil peroxidase was provided by Dr. Greipp (Mayo Clinic). Fresh EDTA anticoagulated blood was collected from donors showing no signs of sickness and washed with physiological saline to isolate RBC.
# (§2) Fresh urine specimens were obtained in routine commercial collection vessels. The specimens were, either, analyzed immediately or stored at 4° C. until analysis. The urine samples were prepared for analysis by adding CTAC to produce a 0.1% solution, unless otherwise noted, in order to lyse the erythrocytes, thereby releasing hemoglobin. The assays were performed in a 75×12 mm polystyrene tube. The assay solutions were prepared by adding to each tube 294 μL of high ionic strength buffer, 5.0 μL of the prepared urine samples or standards, and […] of substrate (0.4 mM solution of 7-DNH), unless otherwise noted. […] The standard curve was obtained by plotting chemiluminescence emission in Relative Light Units (RLU) versus Hb concentration (μg/mL) or number of RBCs (#RBC/high power field (hpf)). Cell counts were determined with the Yellow Iris® instrument and confirmed by a manual hemocytometer count.
# (§3) The substrate (7-DNH) and the ultrafiltered urine were prepared as described above. The kinetics of chemiluminescence was determined by monitoring the chemiluminescence signal over a 20 second time period following addition of the substrate (7-DNH) to ultrafiltered urine. Measurements were performed either in the presence or absence of Hb. Experiments performed in the absence of Hb provide background measurements in relative light units (RLU).
# Mb = assay: S/N ratios of different chemiluminescent substrates with Mb; type: biochemical, human; settings: signal integrated over first five seconds
# Experimental: as §1, §2
# as §3, with “Experiments performed in the absence of Hb provide background measurements in relative light units (RLU).” left out
# Hb [2] = assay: Chemiluminescence emission kinetics of 7-DNH with Hb; type: biochemical, human; settings: Hb in ultrafiltered urine, after H2O2
# Experimental: as §3
# leukocytes = assay: Stability of leukocytes in urine with ofloxacin; type: cell-based; settings: 100 μg/ml ofloxacin, 4° C.
# Experimental: (§4) Intra- and inter-assay imprecision was performed for MPO standards, WBC standards and 3 urine samples. Intra- and inter-assay imprecision tests were performed as described for the Hb assay in Example 7. The effect of time on the stability of enzyme activity in the leukocytes was examined. The effect of adding a quinoline antimicrobial agent, ofloxacin, was also studied with respect to its stabilization of the leukocytes.
# Stability of leukocytes in the urine over time was improved by storing the urine samples at 4° C. The addition of 100 μg/ml of ofloxacin kept the leukocytes intact up to 20 hours later when the urines were maintained at 4° C. (FIG. 14).
# Hb [3] = assay: Performance characteristics of Hb assay (precision, linearity, recovery, stability); design: species or system human; settings: with detergent and substrate
# Experimental: Ultrafiltered urine was prepared from a pool of fresh urine specimens by ultrafiltration through Centriprep-10 at 3,000×g in a Beckman J2-HC centrifuge (Beckman Instruments, Calif.). This treatment separates all biomolecules with molecular weight greater than 10,000 daltons so that the ultrafiltered urine is devoid of Hemoglobin (Hb) and Myoglobin (Mb). Stock standards were prepared with the ultrafiltrate containing known quantities of, either purified Hb or washed, packed RBCS. A cell count of the stock RBC standard was determined by the Yellow IRIS® Automated Imaging System (Independent Research Imaging Systems, Chatsworth, Calif.). Cells in urine are imaged under laminar flow conditions. Up to 80 images of cells are captured using a high speed charged-coupled device camera. Cell images are then identified and quantified. […] All chemiluminescence measurements were determined using a Berthold AutoLumat, LB 953 (EG&G Berthold, Aliquippa, Pa.).
# Fresh urine specimens were obtained in routine commercial collection vessels. The specimens were, either, analyzed immediately or stored at 4° C. until analysis. […] The emission of light was measured over five seconds following automatic injection of 300 μL of 5% hydrogen peroxide (pH 3.25). […] Cell counts were determined with the Yellow Iris® instrument and confirmed by a manual hemocytometer count. […]
# MPO [4] = target: T1, MPO; assay: Effects of potential interfering substances in WBC (MPO, PS-1) assay; type: biochemical; settings: Hb <10 μg/mL
# MPO [5] = target: T1, MPO; assay: as above; type: biochemical; settings: level giving signal equal to 5 WBC/high power field; highest tested: hemoglobin 250, myoglobin 200 μg/mL
# Experimental: (§5) Urine samples were diluted 1:4 into distilled water to minimize inhibitory effects observed with hyperosmolal urines. Two μL of diluted urine were added to 12×75 mm polystyrene test tube containing 50 μL of the PS-1 solution. The tubes were incubated at 37° C. for 5 minutes. MPO activity was determined by chemiluminescence emission using a Turner TD-20e luminometer maintained at 37° C. Leukocyte counting was performed manually by using a hemacytometer chamber (Kova Glasstic slide, Hycor, Irvine, Calif.) on each urine sample to determine the number of cells/mL.
# Several possible interfering substances were added to urine and tested for inhibitory effects. Several common medications were also tested for potential inhibitory effects. […] Hb at concentrations of >10 μg/mL and Mb at concentrations >2 μg/mL were detected by the PS-1 substrate as the chemiluminescence emission was above the normal urine background. Samples grossly populated with bacteria caused slight inhibition of the MPO activity. Urine samples may contain many epithelial cells, casts, crystals, and numerous artifacts but none of these appear to interfere with the chemiluminescence emission from MPO.
# RBC = assay: Effectiveness of lysing agents in RBC assay; type: cell-based, human; settings: saponin 0.2 mg/mL, 30 second time period; mellitin 0.85 mg/mL; CTAC 0.1%
# Experimental: as §2
# Hb [6] = assay: Interference studies in Hb assay (7-DNH chemiluminescence); type: biochemical, human
# Experimental: Numerous potential interfering substances, which either enhance or quench the signal generated by cyclic hydrazides, were evaluated. The effects of these potentially interfering substances on light emission was investigated at varying concentrations of the interfering composition. Assays were performed using serial dilutions of the potential interfering compositions in ultrafiltered urine at a fixed concentration of Hb. Comparisons of chemiluminescence emission were made between a reference solution (Hb in ultrafiltered urine) without added interfering compositions and solutions with added interferant.
# Generally, the value of 3 RBC per high power field is the normal cutoff point.
# Bilirubin and uric acid were examined as a possible negative interfering compositions because of their chemical structure which may quench energy emitted.
# MPO [7] = target: T1, MPO; assay: Performance characteristics of WBC assay, MPO standard; settings: listed as MPO
# Experimental: as §5, §4
# MPO [8] = assay: Effect of temperature/time on chemiluminescence emission from MPO with PS-1; type: biochemical
# Experimental: as §5
# The kinetics of chemiluminescence emission from MPO at 37° C. was followed over time using several urine samples diluted 4-fold in water (FIG. 11). […] Assays in Examples 10-16 were performed at 37° C., and chemiluminescence emission determined at 5 minutes.
molecule,measurement,setting,value
"CN(C)c1ccc2ccc3c(=O)[nH][nH]c(=O)c3c2c1 [7-DNH, 7-dimethylamino-naphthalene-1,2-dicarbonic acid-hydrazide]",sensitivity compared to other substrates tested,Hb [1]; by signal to noise ratio,most sensitive
same,S/N for Hb,Hb [1]; signal integrated over first five seconds,589
same,S/N for Mb,Mb,316
same,time of peak emission,Hb [2],2 s
CC1COc2c(N3CCN(C)CC3)c(F)cc3c(=O)c(C(=O)O)cn1c23 (stereo not drawn) [ofloxacin],leukocytes kept intact in urine,leukocytes,up to 20 hours
Hemoglobin: human hemoglobin purchased from Sigma,stability of Hb in the samples during the reaction,Hb [3],up to 25 minutes
same,interference with PS-1 assay,MPO [4],did not interfere
same,Interference,MPO [5],> 10 µg/mL
Mellitin: lysing agent,effectiveness as lysing agent,RBC,nearly as effective as 0.1% CTAC
"Myeloperoxidase: myeloperoxidase obtained from Calbiochem (protein, UniProt P05164 165-745, looked up) Myeloperoxidase: VTCPEQDKYRTITGMCNNRRSPTLGASNRAFVRWLPAEYEDGFSLPYGWTPGVKRNGFPVALARAVSNEIVRFPTDQLTPDQERSLMFMQWGQLLDHDLDFTPEPAARASFVTGVNCETSCVQQPPCFPLKIPPNDPRIKNQADCIPFFRSCPACPGSNITIRNQINALTSFVDASMVYGSEEPLARNLRNMSNQLGLLAVNQRFQDNGRALLPFDNLHDDPCLLTNRSARIPCFLAGDTRSSEMPELTSMHTLLLREHNRLATELKSLNPRWDGERLYQEARKIVGAMVQIITYRDYLPLVLGPTAMRKYLPTYRSYNDSVDPRIANVFTNAFRYGHTLIQPFMFRLDNRYQPMEPNPRVPLSRVFFASWRVVLEGGIDPILRGLMATPAKLNRQNQIAVDEIRERLFEQVMRIGLDLPALNMQRSRDHGLPGYNAWRRFCGLPQPETVGQLGTVLRNLKLARKLMEQYGTPNNIDIWMGGVSEPLKRKGRVGPLLACIIGTQFRKLRDGDRFWWENEGVFSMQQRQALAQISLPRIICDNTGITTVSKNNIFMSNSYPRDFVNCSTLPALNLASWREAS",Level of Interference (in words),"Hb [6]; highest conc: ascorbic acid 10, bilirubin 10, Cu++/Mn++ 40, sodium azide 500 μg/mL, uric acid 1 mg/mL",only interfere at very high concentrations
same,Level of Interference,"Hb [6]; level producing a signal equivalent to 3 RBC per high power field, fixed Hb concentration",> 6.2 µg/mL
same,"CV%, MPO Standard","MPO [7]; Table 10, intra-assay precision, 0.01% Triton incorporated",2.05% and 3.56% and 4.33% and 4.63%
same,"CV%, MPO Standard","MPO [7]; Table 11, 0.01% Triton incorporated",6.36% and 8.39% and 8.26% and 5.50%
same,change in RLU (constant chemiluminescence emission),"MPO [8]; 37° C., between 3 and 20 minutes",less than 5%
same,time of maximum light emission,MPO [8]; room temperature,15 min
